Results published in PMC3614016.

Key:
[1] = biological target: mutant human PCNA (surface-exposed cysteines mutated, N107C), unlabeled (human) (UniProt P12004); assay: stopped-flow FRET between Cy3-P/T DNA and Cy5-PCNA, trapping experiment with polδ; As a2, with polδ at a ratio of 1:1:1 PCNA:Cy5-PCNA:polδ. The substrates were Cy3-P/T DNA, Cy3-P/T DNA-No Flap and Cy3-P/T DNA-25 bp. The read-out is the overall amplitude of reloading over that of unloading (0.5 = all unlabeled PCNA unloaded, 1.0 = all unlabeled PCNA kept on DNA).
PCNA (Homo sapiens) = PCNA (Homo sapiens) (UniProt P12004); conditions: cited from earlier work

Substance	A (T,Reload)/A (T,Unload) with polδ (Cy3-P/T DNA) [1]	A (T,Reload)/A (T,Unload) with polδ (Cy3-P/T DNA-25 bp) [1]	A (T,Reload)/A (T,Unload) with polδ (Cy3-P/T DNA-No Flap) [1]	Kd (PCNA (Homo sapiens)) [pM]
wild-type human DNA polymerase δ (polδ) (complex)	1	1	0.99	
RFC (from UniProt P35251)				200
